# Measured values reported in IntAct's records for PubMed 16096059.
# B1: Tethering factor for nuclear proteasome cut8 (Schizosaccharomyces pombe (strain ATCC 38366 / 972)), P38937 (parent)
# chain: METLSYSQIKKRKADFDEDISKRARQLPVGEQLPLSRLLQYSDKQQLFTILLQCVEKHPDLARDIRGILPAPSMDTCVETLRKLLINLNDSFPYGGDKRGDYAFNRIREKYMAVLHALNDMVPCYLPPYSTCFEKNITFLDAATNVVHELPEFHNPNHNVYKSQAYYELTGAWLVVLRQLEDRPVVPLLPLEELEEHNKTSQNRMEEALNYLKQLQKNEPLVHERSHTFQQTNPQNNFHRHTNSMNIGNDNGMGWHSMHQYI
# partner: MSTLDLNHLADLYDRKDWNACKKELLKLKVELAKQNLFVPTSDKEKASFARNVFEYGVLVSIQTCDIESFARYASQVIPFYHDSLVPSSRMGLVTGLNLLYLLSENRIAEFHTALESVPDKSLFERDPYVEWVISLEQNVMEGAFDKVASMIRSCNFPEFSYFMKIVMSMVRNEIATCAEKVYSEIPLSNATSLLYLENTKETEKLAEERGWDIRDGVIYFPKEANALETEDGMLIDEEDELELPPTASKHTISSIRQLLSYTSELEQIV
# B2: Tethering factor for nuclear proteasome cut8 (Schizosaccharomyces pombe (strain ATCC 38366 / 972)), P38937 (parent)
# chain: B1 chain
# partner: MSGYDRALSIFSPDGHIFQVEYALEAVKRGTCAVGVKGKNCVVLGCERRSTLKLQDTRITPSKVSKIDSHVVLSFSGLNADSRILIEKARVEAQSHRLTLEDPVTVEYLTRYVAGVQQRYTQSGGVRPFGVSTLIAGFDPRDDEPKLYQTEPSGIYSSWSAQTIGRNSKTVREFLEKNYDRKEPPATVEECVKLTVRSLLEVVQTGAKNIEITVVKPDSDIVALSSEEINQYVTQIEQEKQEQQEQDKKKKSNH
# Variants of: B1
# Settings: with rpn12_schpo rpn12, P50524
row,effect of a mutation on the interaction,Variant
1,decreasing interaction,K10R;K11R;K13R;K22R;K44R;K57R

# Variants of: B2
# Settings: with psa4_yeast PRE6, P40303
row,effect of a mutation on the interaction,Variant
1,decreasing interaction,K10R;K11R;K13R;K22R;K44R;K57R
